The results in this text go back to US20110263827A1 (AbbVie / Abbott, published 2011).

The chains are these.
B1: DVD326 (bispecific antibody)
VH: EVQLVQSGGGLVKPGGSLRLSCAASGFTFSSYAMHWVRQAPGKGLEWVAVISYDGSNKYYADSVKGRFTISRDNSKNTLYLQMNSLRAEDTAVYYCARFSGWPNNYYYYGMDVWGQGTTVTVSSASTKGPQVQLQESGPGLVKPSQTLSLTCTVSGYSISSDFAWNWIRQPPGKGLEWMGYISYSGNTRYQPSLKSRITISRDTSKNQFFLKLNSVTAADTATYYCVTAGRGFPYWGQGTLVTVSS
VL: DVVMTQSPLSLPVTPGEPASISCRSSQSLLHSNGFNYVDWYLQKPGQSPHLLIYFGSYRASGVPDRFSGSGSGTDFTLKISRVEAEDVGVYYCMQALQTPPWTFGQGTKVEIRRTVAAPDIQMTQSPSSMSVSVGDRVTITCHSSQDINSNIGWLQQKPGKSFKGLIYHGTNLDDGVPSRFSGSGSGTDYTLTISSLQPEDFATYYCVQYAQFPWTFGGGTKLEIKR
notes: DVD-Ig; HC S, LC S; variable parts only
B2: DVD768 (bispecific antibody)
VH: EVQLVQSGGGLVKPGGSLRLSCAASGFTFSSYAMHWVRQAPGKGLEWVAVISYDGSNKYYADSVKGRFTISRDNSKNTLYLQMNSLRAEDTAVYYCARFSGWPNNYYYYGMDVWGQGTTVTVSSASTKGPSVFPLAPQVQLQESGPGLVKPSQTLSLTCTVSGYSISSDFAWNWIRQPPGKGLEWMGYISYSGNTRYQPSLKSRITISRDTSKNQFFLKLNSVTAADTATYYCVTAGRGFPYWGQGTLVTVSS
VL: DVVMTQSPLSLPVTPGEPASISCRSSQSLLHSNGFNYVDWYLQKPGQSPHLLIYFGSYRASGVPDRFSGSGSGTDFTLKISRVEAEDVGVYYCMQALQTPPWTFGQGTKVEIRRTVAAPSVFIFPPDIQMTQSPSSMSVSVGDRVTITCHSSQDINSNIGWLQQKPGKSFKGLIYHGTNLDDGVPSRFSGSGSGTDYTLTISSLQPEDFATYYCVQYAQFPWTFGGGTKLEIKR
notes: DVD-Ig; HC L, LC L; variable parts only
B3: DVD828 (bispecific antibody)
VH: B1 VH
VL: B2 VL
notes: DVD-Ig; HC S, LC L; variable parts only
B4: DVD798 (bispecific antibody)
VH: B2 VH
VL: B1 VL
notes: DVD-Ig; HC L, LC S; variable parts only
B5: DVD776 (bispecific antibody)
VH: EVQLLESGGGLVQPGGSLRLSCTASGFTFSSYAMNWVRQAPGKGLEWVSAISGSGGTTFYADSVKGRFTISRDNSRTTLYLQMNSLRAEDTAVYYCAKDLGWSDSYYYYYGMDVWGQGTTVTVSSASTKGPSVFPLAPQVQLQESGPGLVKPSQTLSLTCTVSGYSISSDFAWNWIRQPPGKGLEWMGYISYSGNTRYQPSLKSRITISRDTSKNQFFLKLNSVTAADTATYYCVTAGRGFPYWGQGTLVTVSS
VL: DIQMTQFPSSLSASVGDRVTITCRASQGIRNDLGWYQQKPGKAPKRLIYAASRLHRGVPSRFSGSGSGTEFTLTISSLQPEDFATYYCLQHNSYPCSFGQGTKLEIKRTVAAPSVFIFPPDIQMTQSPSSMSVSVGDRVTITCHSSQDINSNIGWLQQKPGKSFKGLIYHGTNLDDGVPSRFSGSGSGTDYTLTISSLQPEDFATYYCVQYAQFPWTFGGGTKLEIKR
notes: as for B2
B6: DVD775 (bispecific antibody)
VH: QVQLQESGPGLVKPSQTLSLTCTVSGYSISSDFAWNWIRQPPGKGLEWMGYISYSGNTRYQPSLKSRITISRDTSKNQFFLKLNSVTAADTATYYCVTAGRGFPYWGQGTLVTVSSASTKGPSVFPLAPEVQLLESGGGLVQPGGSLRLSCTASGFTFSSYAMNWVRQAPGKGLEWVSAISGSGGTTFYADSVKGRFTISRDNSRTTLYLQMNSLRAEDTAVYYCAKDLGWSDSYYYYYGMDVWGQGTTVTVSS
VL: DIQMTQSPSSMSVSVGDRVTITCHSSQDINSNIGWLQQKPGKSFKGLIYHGTNLDDGVPSRFSGSGSGTDYTLTISSLQPEDFATYYCVQYAQFPWTFGGGTKLEIKRTVAAPSVFIFPPDIQMTQFPSSLSASVGDRVTITCRASQGIRNDLGWYQQKPGKAPKRLIYAASRLHRGVPSRFSGSGSGTEFTLTISSLQPEDFATYYCLQHNSYPCSFGQGTKLEIKR
notes: as for B2
B7: DVD805 (bispecific antibody)
VH: B6 VH
VL: DIQMTQSPSSMSVSVGDRVTITCHSSQDINSNIGWLQQKPGKSFKGLIYHGTNLDDGVPSRFSGSGSGTDYTLTISSLQPEDFATYYCVQYAQFPWTFGGGTKLEIKRTVAAPDIQMTQFPSSLSASVGDRVTITCRASQGIRNDLGWYQQKPGKAPKRLIYAASRLHRGVPSRFSGSGSGTEFTLTISSLQPEDFATYYCLQHNSYPCSFGQGTKLEIKR
notes: as for B4
B8: DVD835 (bispecific antibody)
VH: QVQLQESGPGLVKPSQTLSLTCTVSGYSISSDFAWNWIRQPPGKGLEWMGYISYSGNTRYQPSLKSRITISRDTSKNQFFLKLNSVTAADTATYYCVTAGRGFPYWGQGTLVTVSSASTKGPEVQLLESGGGLVQPGGSLRLSCTASGFTFSSYAMNWVRQAPGKGLEWVSAISGSGGTTFYADSVKGRFTISRDNSRTTLYLQMNSLRAEDTAVYYCAKDLGWSDSYYYYYGMDVWGQGTTVTVSS
VL: B6 VL
notes: as for B3
B9: DVD333 (bispecific antibody)
VH: B8 VH
VL: B7 VL
notes: as for B1
B10: DVD325 (bispecific antibody)
VH: QVQLQESGPGLVKPSQTLSLTCTVSGYSISSDFAWNWIRQPPGKGLEWMGYISYSGNTRYQPSLKSRITISRDTSKNQFFLKLNSVTAADTATYYCVTAGRGFPYWGQGTLVTVSSASTKGPEVQLVQSGGGLVKPGGSLRLSCAASGFTFSSYAMHWVRQAPGKGLEWVAVISYDGSNKYYADSVKGRFTISRDNSKNTLYLQMNSLRAEDTAVYYCARFSGWPNNYYYYGMDVWGQGTTVTVSS
VL: DIQMTQSPSSMSVSVGDRVTITCHSSQDINSNIGWLQQKPGKSFKGLIYHGTNLDDGVPSRFSGSGSGTDYTLTISSLQPEDFATYYCVQYAQFPWTFGGGTKLEIKRTVAAPDVVMTQSPLSLPVTPGEPASISCRSSQSLLHSNGFNYVDWYLQKPGQSPHLLIYFGSYRASGVPDRFSGSGSGTDFTLKISRVEAEDVGVYYCMQALQTPPWTFGQGTKVEIRR
notes: as for B1
B11: DVD827 (bispecific antibody)
VH: B10 VH
VL: DIQMTQSPSSMSVSVGDRVTITCHSSQDINSNIGWLQQKPGKSFKGLIYHGTNLDDGVPSRFSGSGSGTDYTLTISSLQPEDFATYYCVQYAQFPWTFGGGTKLEIKRTVAAPSVFIFPPDVVMTQSPLSLPVTPGEPASISCRSSQSLLHSNGFNYVDWYLQKPGQSPHLLIYFGSYRASGVPDRFSGSGSGTDFTLKISRVEAEDVGVYYCMQALQTPPWTFGQGTKVEIRR
notes: as for B3
B12: DVD797 (bispecific antibody)
VH: QVQLQESGPGLVKPSQTLSLTCTVSGYSISSDFAWNWIRQPPGKGLEWMGYISYSGNTRYQPSLKSRITISRDTSKNQFFLKLNSVTAADTATYYCVTAGRGFPYWGQGTLVTVSSASTKGPSVFPLAPEVQLVQSGGGLVKPGGSLRLSCAASGFTFSSYAMHWVRQAPGKGLEWVAVISYDGSNKYYADSVKGRFTISRDNSKNTLYLQMNSLRAEDTAVYYCARFSGWPNNYYYYGMDVWGQGTTVTVSS
VL: B10 VL
notes: as for B4

The first assay has as its target T1, RON (UniProt Q04912 25-571, biotinylated). The experiment in a line: direct bind ELISA, N-term VD.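 Further: antibody or DVD-Ig preparations bound to immobilized target antigen on ELISA plates, 1 h at room temperature, TMB detection read as absorbance at 450 nm.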
Molecule B1 showed an EC50 of 0.18 nM.
Molecule B2 gave an EC50 of 0.18 nM.
Same read-out and setting: the same measure for B3: 0.2 nM; for B4: 0.18 nM.

In another assay the target is T2, IGF1R (UniProt P08069 31-932, limits assumed, biotinylated).
T2 construct: ELISA antigen
The experiment in a line: direct bind ELISA, N-term VD.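 Further: antibody or DVD-Ig preparations bound to immobilized target antigen on ELISA plates, 1 h at room temperature, TMB detection read as absorbance at 450 nm.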
B5 gave a 50% effective concentration (EC50) of 0.83 nM.

A further assay addresses T3, EGFR (UniProt P00533 25-645, limits assumed, biotinylated).
T3 construct: ELISA antigen; construct not described
The experiment in a line: direct bind ELISA, N-term VD.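 Further: antibody or DVD-Ig preparations bound to immobilized target antigen on ELISA plates, 1 h at room temperature, TMB detection read as absorbance at 450 nm.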
For B6, the EC50 was found to be 3.59 nM.
B7 registered a half-maximal effective concentration (EC50) of 0.48 nM.
Still for that read-out and setting: as for B8, the figure is 2.42 nM; as for B9, 3.55 nM.
B10 yielded an EC50 of 5.96 nM.
The same measure, in the same setting: as for B11, the figure is 6.28 nM; as for B12, 4.56 nM.

The next assay deals with T1, RON. The experiment in a line: direct bind ELISA, C-term VD.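 Further: ELISA with antibody or DVD-Ig preparations applied to target antigen-coated plates for 1 h at room temperature, TMB colour development, absorbance read at 450 nm.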
With B10, the midpoint of the response, the EC50, lay at 25 nM.
B11: the response was half-maximal at 6.57 nM (EC50).
Consider B12, for which the EC50 was determined as 1.16 nM.

In another assay the target is T2, IGF1R. The experiment in a line: direct bind ELISA, C-term VD.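 Further: ELISA with antibody or DVD-Ig preparations applied to target antigen-coated plates for 1 h at room temperature, TMB colour development, absorbance read at 450 nm.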
B6: the EC50 was determined as 2.77 nM.
As to B7, the EC50 turned out to be 0.99 nM.
Same read-out and setting: the same measure for B8: 3.47 nM; for B9: 78.6 nM.

The target of a further assay is T3, EGFR. The experiment in a line: direct bind ELISA, C-term VD.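 Further: ELISA with antibody or DVD-Ig preparations applied to target antigen-coated plates for 1 h at room temperature, TMB colour development, absorbance read at 450 nm.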
For the molecule B1, it took 29.9 nM to reach a half-maximal effect (EC50).
Still for that read-out and setting: the same measure for B2: 20.7 nM.
B3: the response was half-maximal at 19.8 nM (EC50).
The same measure, in the same setting: as for B4, the figure is 17.9 nM.
Same read-out and setting: as for B5, the figure is 286 nM.
